Test results: patent US20120258109A1 (Eli Lilly, published 2012)

Columns and labels:
Rat TGF-alpha [1] = molecular target: T1, Rat TGF-alpha (rat, UniProt P01134 39-88); assay: SPR (Biacore), antibody captured by anti-human Fc, ligand in solution, 25 C
Method: (§1) Biacore T2000 instrument (BIAcore® AB, Upsala, Sweden), reagents and Biacore T2000 Evaluation Software Ver 4.1 are used for the Surface Plasmon Resonance analysis. A CM5 chip is prepared using manufacturer's EDC/NHS amine coupling method. The surfaces of all four flow cells are activated by injecting a 1:1 mixture of EDC/NHS for 7 minutes at 10 μL/min. Goat anti-human Fc γ specific antibody is diluted to 50 μg/ml in 10 mM acetate, pH 4.0 buffer and immobilized for approximately 10000 RU onto all four flow cells by 7 minute injection at a flow rate of 10 μL/min. Un-reacted sites are blocked with a 7 minute injection of ethanolamine at 10 μL/min. Injections of 3×20 seconds of glycine pH 1.5 at 30 μL/min are used to remove non-covalently associated protein. The running buffer is HBS-EP [10 mM HEPES, 150 mM Sodium Chloride, 3 mM EDTA, 0.005% Polysorbate 20].
(§2) Duplicate injections of each ligand concentration are injected at 30 μL/min for 300 seconds followed by a dissociation phase. […] Regeneration is performed by injecting 10 mM glycine pH 1.5 for 3×20 seconds at 30 μL/min over all flowcell.
(§3) Reference-subtracted data are collected as Fc2−Fc1. The measurements are obtained at 25° C. The on-rate (kₒₙ) and off-rate (koff) for each ligand are evaluated using a “1:1 (Langmuir) Binding” binding model. The affinity (KD) is calculated from the binding kinetics according to the relationship: KD=koff/kₒₙ.

Cynomolgus Epiregulin = Cynomolgus Epiregulin (cynomolgus, UniProt O14944 63-108 (human entry), limits assumed); assay: as above
Method: as §1, §2, §3

Mouse Epiregulin [2] = molecular target: T2, Mouse Epiregulin (mouse, UniProt Q61521 56-101); assay: as above
Method: as §1, §2, §3

Met-human Epiregulin [3] = molecular target: T3, Met-human Epiregulin (human, UniProt O14944 63-108); assay: as above
T3 construct: also called EREG; human met-Epiregulin
Method: as §1, §2, §3

Rat TGF-alpha [4] = molecular target: T1, Rat TGF-alpha; assay: cell-based or functional assay
Mouse Epiregulin [5] = molecular target: T2, Mouse Epiregulin; assay: cell-based or functional assay
Met-human Epiregulin [6] = molecular target: T3, Met-human Epiregulin; assay: cell-based or functional assay
Human Epigen = Human Epigen (human, UniProt Q6UW88 24-104, limits assumed); assay: cell-based or functional assay
Human TGF-alpha = Human TGF-alpha (human, UniProt P01135 40-89); assay: cell-based or functional assay
Mouse Epiregulin [7] = molecular target: T2, Mouse Epiregulin; assay: SPR (Biacore), antibody captured on the chip, ligand in solution, 25 C
Method: as §1
(§4) Duplicate injections of each ligand concentration are injected at 30 μL/min for 300 seconds followed by a dissociation phase. […] Regeneration is performed by injecting 10 mM glycine pH 1.5 for 30 seconds at 30 μL/min over all flowcell.
as §3

Mouse TGF-alpha = Mouse TGF-alpha (mouse, UniProt P48030 39-88, limits assumed); assay: as above
Method: as §1, §4, §3

Row | Kd (Rat TGF-alpha [1]) [nM] | Kd (Cynomolgus Epiregulin) [nM] | Kd (Mouse Epiregulin [2]) [nM] | Kd (Met-human Epiregulin [3]) [nM] | IC50 (nM), MFc7 proliferation assay (BrDU), ligand at 0.5 nM (Rat TGF-alpha [4]) [nM] | IC50 (nM), MFc7 proliferation assay (BrDU), ligand at 0.5 nM (Mouse Epiregulin [5]) [nM] | IC50 (nM), MFc7 proliferation assay (BrDU), ligand at 0.5 nM (Met-human Epiregulin [6]) [nM] | IC50 (nM), MFc7 proliferation assay (BrDU), ligand at 100 nM (Human Epigen) [nM] | IC50 (nM), MFc7 proliferation assay (BrDU) (Human TGF-alpha) [nM] | IC50 (nM), MFc7 proliferation assay (BrDU) (Met-human Epiregulin [6]) [nM] | Kd (Mouse Epiregulin [7]) [nM] | koff (Mouse Epiregulin [7]) [s⁻¹] | kon (Mouse Epiregulin [7]) [M⁻¹ s⁻¹] | Kd (Mouse TGF-alpha) [nM] | koff (Mouse TGF-alpha) [s⁻¹] | kon (Mouse TGF-alpha) [M⁻¹ s⁻¹] | Binder
1 | 0.0705 | 1.05 | 342 | 1.29 | 0.19 | 334 | 3.15 | 807 |  |  |  |  |  |  |  |  | Antibody I (antibody, human IgG4 S228P, kappa, F234A L235A, V domains shown) VH: QVQLVQSGAEVKKPGSSVKVSCKASGYTFTDAYINWVRQAPGQGLEWMGWIWPGPVITYYNPKFKGRVTITADKSTSTAYMELSSLRSEDTAVYYCARREVLSPFAYWGQGTTVTVSS VL: DIVMTQSPDSLAVSLGERATINCRSSQSIVHSTGNTYLEWYQQKPGQPPKLLIYKVSNRFSGVPDRFSGSGSGTDFTLTISSLQAEDVAVYYCFHGTHVPYTFGGGTKVEIKR
2 |  |  |  |  | 0.13 | 214 |  |  | 0.52 | 1.12 | 215 | 0.0141 | 65500 | 0.038 | 2.02e-05 | 541000 | Antibody III (antibody, mouse IgG1, kappa, V domains shown, same six CDRs as Antibody I) VH: QVQLQQSGPELVKPGASVKISCKASGYTFTDAYINWVKQRPGQGLEWIGWIWPGPVITYYNPKFKGKATLTVDKSSSTAYMLLSSLTSEDSAFYFCARREVLSPFAYWGQGTLVTVSA VL: DVLMTQTPLSLPVSLGDQASISCRSSQSIVHSTGNTYLEWYLQKPGQSPKLLIYKVSNRFSGVPDRFSGSGSGTDFTLKISRVEAEDLGVYYCFHGTHVPYTFGGGTKLEIKR
